Molecular target: T1, integrin αV/β3 (Homo sapiens, UniProt P05106+P06756)
T1 construct: expressed in transfected cells; host or cells: HEK293T
Experiment: FAK phosphorylation in HEK293T cells with forced expression of integrin αV/β3
Assay type: cell-based
Details: HEK293T, forced expression of integrin αV/β3, irisin 5 minutes
Method: 100 nM irisin was incubated with 5 nM indicated his-tag integrins followed by immunoprecipitation using Ni-NTA agaroses. Precipitated integrins and co-precipitated irisin were analyzed by immunoblot analysis. […] HEK293T cells were seeded and incubated until 50% cell density. The cells were transfected with 0.1 μg plasmids of indicated integrins. After 48 hours, the cells were incubated with Freestyle293 medium for 3 hours and were treated with indicated concentration of irisin for 5 minutes. Cells were lysed to detect the indicated protein level using immunoblot analysis. […] MLO-Y4 cells were treated as described in FIG. 2D with addition of pretreatment of indicated antagonistic antibodies for 10 minutes. Cells were lysed to detect the indicated protein level using immunoblot analysis. […] Sclerostin mRNA level was analyzed by qRT-PCR. […]
100 nM irisin was incubated with 5 nM indicated his-tag integrins followed by immunoprecipitation using Ni-NTA agaroses. Precipitated integrins and co-precipitated irisin were analyzed by immunoblot analysis. […] Cells were treated and analyzed as FIG. 14B except using plasmids encoding integrin α5/β1 or integrin α11/β1 (FIG. 15C) integrin αV/β1(FIG. 15D). […]
Cells were harvested in RIPA buffer containing protease-inhibitor cocktail and phosphataseinhibitor cocktail. […] Protein levels were analyzed via western blot using indicated antibody. […]

T1 sequence (P06756 31-889 limits assumed): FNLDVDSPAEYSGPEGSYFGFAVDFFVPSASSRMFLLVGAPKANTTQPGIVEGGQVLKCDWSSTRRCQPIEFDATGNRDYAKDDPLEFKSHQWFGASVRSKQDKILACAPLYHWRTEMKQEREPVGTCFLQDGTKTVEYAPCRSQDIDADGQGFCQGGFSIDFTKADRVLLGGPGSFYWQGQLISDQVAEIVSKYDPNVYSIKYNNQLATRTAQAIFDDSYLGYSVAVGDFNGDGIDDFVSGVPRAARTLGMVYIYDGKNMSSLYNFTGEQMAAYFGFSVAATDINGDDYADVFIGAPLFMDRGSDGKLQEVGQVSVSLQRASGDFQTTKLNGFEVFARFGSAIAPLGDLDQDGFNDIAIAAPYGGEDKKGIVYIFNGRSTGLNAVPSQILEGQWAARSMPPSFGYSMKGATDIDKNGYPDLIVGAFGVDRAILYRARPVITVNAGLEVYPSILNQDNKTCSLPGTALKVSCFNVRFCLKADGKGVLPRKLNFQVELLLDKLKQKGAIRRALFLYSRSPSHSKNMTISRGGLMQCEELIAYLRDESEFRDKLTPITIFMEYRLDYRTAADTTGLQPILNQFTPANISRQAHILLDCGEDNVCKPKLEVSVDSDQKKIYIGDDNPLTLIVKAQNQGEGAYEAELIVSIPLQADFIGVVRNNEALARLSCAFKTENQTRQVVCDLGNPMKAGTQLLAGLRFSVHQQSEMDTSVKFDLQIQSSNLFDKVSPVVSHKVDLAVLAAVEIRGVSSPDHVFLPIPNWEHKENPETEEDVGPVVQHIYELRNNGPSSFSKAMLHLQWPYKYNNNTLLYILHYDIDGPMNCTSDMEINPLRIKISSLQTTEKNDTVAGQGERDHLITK
T1 sequence (P06756 891-1048 partner limits assumed): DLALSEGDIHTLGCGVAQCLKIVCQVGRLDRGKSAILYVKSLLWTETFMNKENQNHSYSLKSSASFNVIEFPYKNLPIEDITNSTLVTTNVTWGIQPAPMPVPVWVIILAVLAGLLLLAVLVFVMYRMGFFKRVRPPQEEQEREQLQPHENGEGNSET
T1 sequence (P05106 27-788): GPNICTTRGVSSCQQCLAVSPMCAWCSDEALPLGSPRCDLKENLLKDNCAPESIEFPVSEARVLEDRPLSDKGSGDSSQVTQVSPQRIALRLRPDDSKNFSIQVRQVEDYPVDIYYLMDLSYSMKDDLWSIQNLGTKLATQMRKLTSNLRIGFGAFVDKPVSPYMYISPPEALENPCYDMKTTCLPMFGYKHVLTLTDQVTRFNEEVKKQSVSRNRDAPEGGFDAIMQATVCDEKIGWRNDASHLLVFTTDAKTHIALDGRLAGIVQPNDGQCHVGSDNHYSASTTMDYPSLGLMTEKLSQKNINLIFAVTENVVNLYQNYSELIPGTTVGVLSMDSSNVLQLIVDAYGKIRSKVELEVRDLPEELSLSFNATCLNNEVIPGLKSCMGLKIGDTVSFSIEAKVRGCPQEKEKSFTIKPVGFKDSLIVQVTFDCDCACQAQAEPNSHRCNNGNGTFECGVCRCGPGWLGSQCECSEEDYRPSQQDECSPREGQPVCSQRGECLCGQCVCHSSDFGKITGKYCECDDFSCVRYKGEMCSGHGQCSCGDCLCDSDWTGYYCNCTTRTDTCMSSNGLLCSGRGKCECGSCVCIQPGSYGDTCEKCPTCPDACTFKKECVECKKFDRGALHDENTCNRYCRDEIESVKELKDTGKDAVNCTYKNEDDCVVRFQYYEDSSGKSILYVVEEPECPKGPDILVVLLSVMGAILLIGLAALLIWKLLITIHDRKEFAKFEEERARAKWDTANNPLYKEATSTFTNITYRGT

B1: irisin: secreted cleaved form of FNDC5; recombinant human/mouse irisin with C-terminal his tag produced in HEK293 cells (protein)
chain: DSPSAPVNVTVRHLKANSAVVSWDVLEDEVVIGFAISQQKKDVRMLRFIQEVNTTTRSCALWDLEEDTEYIVHVQAISIQGQSPASEPVLFKTPREAEKMASKNKDEVTMKE
modifications: left off: small tags and cut ends
notes: secreted cleaved form of FNDC5; recombinant human/mouse irisin with C-terminal his tag produced in HEK293 cells
phosphorylation of FAK upon irisin treatment: not
